Like-named read-outs stand apart in the source and are kept apart here.
Key:
Test in all cases: cryo-EM structure
cryo-EM structure [1] = target: the molecule itself
cryo-EM structure [2] = target: the molecule itself; remark: listed apart in the source
[3] = target: E. coli RNA polymerase σ70 subunit (E. coli, UniProt P00579 1-613)
Sequence of E. coli RNA polymerase σ70 subunit (P00579 whole entry): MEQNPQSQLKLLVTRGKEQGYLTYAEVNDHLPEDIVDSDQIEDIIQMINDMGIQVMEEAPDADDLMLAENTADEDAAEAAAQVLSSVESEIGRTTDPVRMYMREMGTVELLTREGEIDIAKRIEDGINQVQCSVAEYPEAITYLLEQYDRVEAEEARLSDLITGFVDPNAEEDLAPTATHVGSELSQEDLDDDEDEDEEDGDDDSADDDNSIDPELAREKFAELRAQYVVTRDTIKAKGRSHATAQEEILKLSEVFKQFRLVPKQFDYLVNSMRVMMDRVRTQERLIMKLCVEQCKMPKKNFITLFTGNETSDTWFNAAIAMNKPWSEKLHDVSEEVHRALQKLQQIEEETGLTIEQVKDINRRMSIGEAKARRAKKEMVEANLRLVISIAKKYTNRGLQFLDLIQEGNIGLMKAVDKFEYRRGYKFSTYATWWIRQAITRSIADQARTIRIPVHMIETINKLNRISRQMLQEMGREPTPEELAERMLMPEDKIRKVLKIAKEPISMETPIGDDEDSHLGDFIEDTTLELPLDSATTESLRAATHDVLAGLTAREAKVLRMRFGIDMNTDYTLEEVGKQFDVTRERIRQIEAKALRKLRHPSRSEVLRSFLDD

Binder | stoichiometry N (cryo-EM structure [1]) | stoichiometry N (cryo-EM structure [2]) | binding result [3]
phage Mu late gene transcription activator C (natural protein, bacteriophage Mu, UniProt P06022 1-140, looked up) MQHDLFEHDPAIRQLIGHIDNIPAPELESRWPRSVVDLIDVLENELKRQNVSNPRELARKQAVALSCFLGGRQFYIPCGDTILTALRDDLLYCQFNGRNMEELRRQYRLSQPQIYQIIARQRKLHTRRHQPDLFSPETPK | 4 |  | 
phage Mu middle operon regulator Mor (natural protein, bacteriophage Mu, UniProt P23848 1-129, looked up) MTEDLFGDLQDDTILAHLDNPAEDTSRFPALLAELNDLLRGELSRLGVDPAHSLEIVVAICKHLGGGQVYIPRGQALDSLIRDLRIWNDFNGRNVSELTTRYGVTFNTVYKAIRRMRRLKYRQYQPSLL |  | 4 | binds
